Experimental findings from patent US20120122128A1 are described below.

Assay [1] has as its target SNAP-25 peptide comprising amino acids 134-197 of SEQ ID NO: 5 (human). The assay can be described thus: SPR (BIAcore 3000), peptide amine-coupled to CM5 chip, antibody as analyte, 1:1 fit.
Assay [2] addresses SNAP-25 peptide comprising amino acids 134-206 of SEQ ID NO: 5 (human). The description is as above.
The target of assay [3] is FGFR3 of SEQ ID NO: 25 (Homo sapiens (Human)) (UniProt P22607). The assay can be described thus: cell-based or functional assay.
Sequence of FGFR3 of SEQ ID NO: 25 (Homo sapiens (Human)) (P22607 other isoform, or with tags, fused parts or gaps limits assumed): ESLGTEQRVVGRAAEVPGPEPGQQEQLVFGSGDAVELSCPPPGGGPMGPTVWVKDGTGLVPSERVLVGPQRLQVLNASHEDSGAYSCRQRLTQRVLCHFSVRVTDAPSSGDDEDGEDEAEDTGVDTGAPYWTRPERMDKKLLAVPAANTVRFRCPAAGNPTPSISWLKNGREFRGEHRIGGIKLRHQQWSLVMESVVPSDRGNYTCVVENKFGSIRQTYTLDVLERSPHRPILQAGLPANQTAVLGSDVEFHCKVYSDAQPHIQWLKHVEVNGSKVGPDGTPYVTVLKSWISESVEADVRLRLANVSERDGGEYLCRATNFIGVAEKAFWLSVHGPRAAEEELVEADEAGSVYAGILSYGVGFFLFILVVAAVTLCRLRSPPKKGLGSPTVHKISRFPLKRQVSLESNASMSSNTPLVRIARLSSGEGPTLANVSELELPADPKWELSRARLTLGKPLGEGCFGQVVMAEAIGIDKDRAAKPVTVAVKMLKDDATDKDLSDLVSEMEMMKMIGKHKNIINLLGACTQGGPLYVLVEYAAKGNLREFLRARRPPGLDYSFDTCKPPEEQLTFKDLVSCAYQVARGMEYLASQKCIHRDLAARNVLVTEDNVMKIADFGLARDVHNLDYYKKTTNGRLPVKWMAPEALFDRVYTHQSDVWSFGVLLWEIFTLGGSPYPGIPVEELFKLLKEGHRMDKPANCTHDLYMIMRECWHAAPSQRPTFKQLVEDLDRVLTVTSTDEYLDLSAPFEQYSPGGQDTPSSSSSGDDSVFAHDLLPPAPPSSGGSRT

In assay [1], “MC-6053 α-SNAP-25 mouse monoclonal antibody (Research & Diagnostic Antibodies)” yielded a Kd of 0.508 nM, a koff of 0.00118 s⁻¹ and a kon of 2.32e+06 M⁻¹ s⁻¹. In assay [2], this substance gave a Kd of 240 nM and a koff of 2.56e-05 s⁻¹.
For the substance “BoNT/A complex (from UniProt P0DPI0 2-1296) (enzyme)”, in assay [3], the EC50 (nM) of SNAP-25 cleavage, Western blot, PC-12 cells transfected with FGFR3 is 0.263 nM and the EC50 (nM) of SNAP-25 cleavage, Western blot, SiMa cells transfected with FGFR3 came out at 0.0377 nM.
As for “MC-6050 α-SNAP-25 mouse monoclonal antibody (Research & Diagnostic Antibodies)”, in assay [1], the Kd amounted to 0.497 nM, the koff was determined as 0.000882 s⁻¹ and the kon came out at 1.78e+06 M⁻¹ s⁻¹. In assay [2], this substance returned a Kd of 19800 nM, a koff of 0.00607 s⁻¹ and a kon of 306 M⁻¹ s⁻¹.

Broadly, the Kd is the free concentration of one partner at which half of the binding sites on the other are occupied at equilibrium, for simple one-to-one binding. Usually koff stands for the first-order rate constant of dissociation. A low value points to slow dissociation. By kon is commonly meant the second-order rate constant of association. Low values mean slow association, high ones fast association.
